Laboratory results reported in patent US10253109 (BLOODWORKS, dated 2019).
Where a chain is given by its changes, count along the chain named.

How the values were obtained:
[1] = target: T1, human Kell glycoprotein, K (KEL1) form (human, UniProt P23276 1-732); test: flow cytometry on RBCs (FIGS. 7A, 7B)
T1 construct: whole, on cells; also called K form of the Kell glycoprotein; K/K RBCs
T1 sequence (looked up): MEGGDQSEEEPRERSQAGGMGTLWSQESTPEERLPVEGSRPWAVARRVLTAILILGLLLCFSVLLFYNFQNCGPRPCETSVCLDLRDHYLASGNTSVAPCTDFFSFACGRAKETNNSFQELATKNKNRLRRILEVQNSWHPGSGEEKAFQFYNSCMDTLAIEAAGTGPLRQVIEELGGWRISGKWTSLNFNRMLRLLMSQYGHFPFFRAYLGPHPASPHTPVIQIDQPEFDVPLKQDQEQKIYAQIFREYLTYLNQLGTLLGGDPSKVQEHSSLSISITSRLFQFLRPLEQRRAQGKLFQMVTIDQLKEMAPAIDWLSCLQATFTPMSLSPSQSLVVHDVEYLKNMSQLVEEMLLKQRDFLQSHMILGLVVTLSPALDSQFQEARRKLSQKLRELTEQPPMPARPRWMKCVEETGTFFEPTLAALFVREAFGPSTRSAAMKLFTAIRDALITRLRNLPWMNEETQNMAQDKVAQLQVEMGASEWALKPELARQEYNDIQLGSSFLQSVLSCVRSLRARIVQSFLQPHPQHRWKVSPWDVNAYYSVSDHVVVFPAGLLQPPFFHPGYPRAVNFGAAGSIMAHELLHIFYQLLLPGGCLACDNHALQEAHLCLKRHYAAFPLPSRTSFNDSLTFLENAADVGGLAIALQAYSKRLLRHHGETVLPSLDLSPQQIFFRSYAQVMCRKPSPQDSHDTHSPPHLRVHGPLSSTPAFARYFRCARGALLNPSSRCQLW
Protocol: (§1) The specificities of the antibodies are shown in FIGS. 7A, 7B, 8A, 8B, 9A-9C, and 10A-10I. The specificities of the antibodies were determined to be: PUMA1/2 (KEL1 or K), PUMA 3 (a common Kell epitope, PUMA 4 (KEL4 or Kp^b). Flow cytometry was utilized to test antibody specificity by indirect immunofluorescence, using the monocolonal antibodies as the primary reagent and a goat-anti-mouse antibody (conjugated to allophycocyanin) as a secondary antibody. Different target cells expressing different Kell variants were used to determine specificity. Targets included RBCs that phenotyped as homozygous for the 3 main antithetical antigens in the Kell system, K/K, k/k, Kp^b/Kp^b, Kp^a/Kp^a, Js^b/Js^b, Js^a/Js^a. Differential binding to such tarets tests specificity. In the case of PUMA ½, binding was only observed when K was present but not on k/k RBCs. In the case of PUMA 3, binding was observed on all RBCs regardless of phenotype for K/k, Kp^a/Kp^b, or Js^a/Js^b, thus indicating a common epitope outside these systems. However, PUMA 3 bound to only KELL glycoprotein transgenic murine RBCs and not wild-type murine RBCs; thus, the epitope recognized by PUMA 3 is on the KELL molecule, but not K/k, Kp^a/Kp^b, or Js^a/Js^b. For PUMA 4, binding was only observed when Kp^b was present but not on Kp^a/Kp^a RBCs.

[2] = target: T2, human Kell glycoprotein, k (KEL2) form (human, UniProt P23276 1-732); test: flow cytometry, indirect immunofluorescence on RBCs
T2 construct: also called k form; k/k RBCs
T2 sequence: T1 sequence (looked up) with M193T
Protocol: as §1

[3] = target: T3, human Kell glycoprotein transgene (KEL1, Kp^b, Js^b variants) on murine RBCs (human, UniProt P23276 1-732); test: in vivo, passive immunization of mice and transfusion of KEL1+ RBCs
T3 construct: whole, on cells; also called KELL glycoprotein transgenic murine RBCs; KEL1+RBCs
T3 sequence (looked up): T1 sequence (looked up)
Protocol: The ability of PUMA1 to induce a HTR was tested by passive immunization of wild-type mice with PUMA1 (by intravenous tail-vein injection), followed by transfusion with murine KEL1+RBCs from KEL1 transgeneic mouse donors. Compared to a control group that got only PBS, PUMA1 caused a brisk clearance of KEL1+RBCs, after which, the surviving RBCs continued to circulate, as is typical of HTRs in both mice and also in humans (FIG. 13). Thus, PUMA1 specifically binds to KEL1 RBCs, in vivo, with sufficient activity to induce an HTR.

[4] = target: T4, human Kell glycoprotein, Kp^a (KEL3) form (human, UniProt P23276 1-732); test: flow cytometry, indirect immunofluorescence on RBCs
T4 construct: whole, on cells; also called Kp^a/Kp^a RBCs
T4 sequence (looked up): T1 sequence (looked up) with M193T, R281W
Protocol: as §1

[5] = target: T2, human Kell glycoprotein, k (KEL2) form; test: flow cytometry, indirect immunofluorescence on k/k RBCs
Protocol: as §1

[6] = target: T3, human Kell glycoprotein transgene …; test: flow cytometry, indirect immunofluorescence on transgenic murine RBCs
Protocol: as §1

[7] = target: T1, human Kell glycoprotein, K (KEL1) form; test: flow cytometry, indirect immunofluorescence on K/K RBCs
Protocol: as §1

B1: monoclonal antibody PUMA 1 (antibody, V domains shown)
VH: EVQLQQSGPELVKPGASVKMSCKASGYTFTDYYMKWVKQSHGKSLEWIGDLNPNNGDTFYNQKFKGKATLTVDKSSSTAYIQLNSLTSEDSAVYYCAREAGSSFGSSCNYWGQGTTLTVS
VL: SVVMTQTPKFLLVSAGDRVTITCKASQTVSKDVAWYQQQPGQSPKLLIYYASNRYTGVPDRFTGSGYGTDFTFTISTVQAEDLAVYFCQQDYSSPYTFGGGTKLEIK
notes: also called PUMA 2; Puma 2
binding result [1]: binds
binding result [2]: no binding
binding result [3]: binds

B2: monoclonal antibody PUMA 4 (antibody, V domains shown)
VH: EVKLEESGGGLVQPGGSMKLSCVASGFTFSNYWMNWVRQPPEKGLEWVAEIRLNSNNYATHYAESVKGKFTISRDDSKSSVYLQMNDLRAEDTGIYYCTRNWDFAWFDSWGQGTLVTVSA
VL: DIVMTQSHKFMSTSVGDRVSITCKASQDVSTVVAWYQQKPGQSPKLLIYWASTRHTGVPDRFTGSGSGTDYTLTISSVQAEDLALYYCQQHYTTPFTFGSGTKLEIK
notes: Mouse monoclonal antibody from hybridoma
binding result [4]: no binding

B3: monoclonal antibody PUMA 3 (antibody, V domains shown)
VH: QVQLKESGPGLLAPSQSLSITCTVSGFSLTSYGVYWVRQPPGKGLEWLGIIWGDGSTNYQSVLRSRLSITKDDSKSQVFLKLNSLQTDDTATYYCAKRGDYDVAYWGQGTLVTVSA
VL: DIVLTQSPASLAVSLGQRAIISCKASQTVSEVGTSLMHWYQQRPGQQPKLLIYRTSNLEAGVPTRFSGSGSRTDFTLNIHPVEEDDAATYYCQQSREFPWTFGGGTRLEIK
notes: as for B2
binding result [5]: binds
binding result [6]: binds
binding result [7]: binds
